This passage reports MFI results from patent US20240294650A1.

For this experiment, the target named is endogenous murine MerTK on bone marrow-derived macrophages (mouse) (UniProt Q60805). Put plainly: FACS, mouse BMDM, WT minus MerTK KO.
Chain of endogenous murine MerTK on bone marrow-derived macrophages (mouse) (Q60805 19-994): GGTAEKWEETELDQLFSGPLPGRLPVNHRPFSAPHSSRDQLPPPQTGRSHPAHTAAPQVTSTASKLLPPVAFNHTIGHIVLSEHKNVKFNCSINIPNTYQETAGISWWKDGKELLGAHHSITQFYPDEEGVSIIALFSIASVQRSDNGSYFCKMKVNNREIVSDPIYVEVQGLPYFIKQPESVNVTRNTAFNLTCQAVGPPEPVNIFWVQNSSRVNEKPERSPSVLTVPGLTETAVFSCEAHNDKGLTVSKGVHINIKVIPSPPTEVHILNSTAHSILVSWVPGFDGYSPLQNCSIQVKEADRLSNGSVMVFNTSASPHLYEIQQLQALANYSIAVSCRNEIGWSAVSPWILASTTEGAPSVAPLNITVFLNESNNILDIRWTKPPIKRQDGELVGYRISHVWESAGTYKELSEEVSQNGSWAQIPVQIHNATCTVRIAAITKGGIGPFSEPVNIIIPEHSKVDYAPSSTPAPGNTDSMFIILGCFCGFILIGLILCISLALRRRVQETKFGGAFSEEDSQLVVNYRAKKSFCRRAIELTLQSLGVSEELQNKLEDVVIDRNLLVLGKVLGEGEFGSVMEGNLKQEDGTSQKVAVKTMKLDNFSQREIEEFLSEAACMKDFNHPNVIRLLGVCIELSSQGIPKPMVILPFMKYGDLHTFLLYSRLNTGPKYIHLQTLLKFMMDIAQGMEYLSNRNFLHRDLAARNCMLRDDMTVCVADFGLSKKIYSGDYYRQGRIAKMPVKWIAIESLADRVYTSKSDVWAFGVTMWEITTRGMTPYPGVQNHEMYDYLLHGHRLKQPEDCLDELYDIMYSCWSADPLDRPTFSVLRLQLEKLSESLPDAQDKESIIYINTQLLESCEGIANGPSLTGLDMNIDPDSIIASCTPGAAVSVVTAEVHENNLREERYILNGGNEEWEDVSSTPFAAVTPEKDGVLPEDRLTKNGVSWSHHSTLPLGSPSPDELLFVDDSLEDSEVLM

B1: MTK-208 (antibody, human IgG1, V domains shown)
VH: QVQLQQPGAELVVPGASVRLSCKASGYTFINYWMHWVKQRPGQGLEWIGEIDPSDSYANYNQKFKDKSTLSLDKSSSTAYMQLSSLTSEDSAVYYCARCDYYGRLDYWGQGTTLTVSS
VL: QVVLTQSPAIMSASPGEKVTITCSASSSVSYMLWFQQKPGTSPKLWIYSTSNLASGVPARFSGSGSGTSYSLTISRLEAEDAATYYCQQRSSYPPITFGAGTKLELK
In turn, B1 gave an MFI of 1170 MFI.

B2: MTK-201 (antibody, human IgG1, V domains shown)
VH: QVQLRQSGPGLVQPSQSLSITCTVSGFSLSNYGLHWVRQSPGKGLEWLGVIWSGGITDYNAAFISRLSIIKDNSRSQVFFKMNSLQADDTAIYYCARKGHDPYAMDFWGQGTSVTVSS
VL: QIVLTQSPPIMSAFLGERVTMTCTASSSVSSSYLHWYRQMPGSSPKLWIYDTSNLASGVPARFSGSGSGTSYSLTISSMEAEDAATYYCHQYHHSPYTFGGGTKLEIK
B2 came in with an MFI of 1030 MFI.

B3: MTK-210 (antibody, human IgG1, V domains shown)
VH: QVQLQQSGPELVKPGASVKISCKASDYEFSRSWMNWVKQRPGKGLEWIGRIYPGDGDTNYNGKFKGKATLTADKSSNTAYMQLNSLTSEDSAVYFCARKGGYYYSISNYFDYWGQGTTLTVSS
VL: QIVLTQSPAIMSASPGVKVTMTCSASSSVSYMHWYQQKPGSSPRLLIYDTSNLASGVPVRFSGSGSGTSYSLTISRMEAEDAATYYCQQWSSYPPYTFGGGTKLEIK
For the molecule B3, the MFI was 1270 MFI.

B4: MTK-217 (antibody, human IgG1, V domains shown)
VH: QVQLQQPGTEVVKPGASVKMSCRASGYTFTSYWITWVKQRPGQGLEWIGDIHPGSGINNYNEKFRSKATLTVDTSSSTVYMELSSLTSEDSAVYYCAKGGYYGSSYYVMDYWGQGTSVTVSS
VL: DILLTQSPAILSVSPGERVSFSCRASQTIGTSIHWYQQRTNDSPRLLIKYASESISGIPSRFSGSGSGTDFTLSINSVESEDIADYYCQQSNDWPYTFGGGTKLEIK
B4 yielded an MFI of 1130 MFI.

B5: MTK-221 (antibody, human IgG1, V domains shown)
VH: QVTLKESGPGMLQSSQTLSLTCSFSGFSLSTSGMGVSWIRQPSGKGLEWLAHIYWDDDKRYNTSLQSRLTISKDTSRNQVFLKITSVDTADTATYFCGRLGAYSAFPYYFDYWGQGTTLTVSS
VL: DIQMTQSPSSLSASLGGKVTITCKASQDIHKHIAWYQHKPGKGPRLLIHYTSTLQPGIPSRFSGSGSGRDYSFSISNLEPEDLATYYCLQYDNLWTFGGGTKLEIK
On to B5, for which the MFI amounted to 993 MFI.
